± gives the standard deviation of the averaged measurements.
Test system: ATP
Test: switch fluorescence ratio, 500 uM ATP over buffer (Cy3 cluster intensity, sum of 5 cycles each) (fold (ratio)); higher = stronger signal-on switching upon ATP binding; sequences stand for … in TCGTCGGCAGCGTCAGATGTGTATAAGAGACAGTTTTTTTTTTTTTTTTTTTTTTTTT…TC
Conditions: aptamer strand: ATP DNA aptamer (quencher-CACCTGGGGGAGTATTGCGGAGGAAGG + anchor), 100 nM annealed; ATP concentration: 500 uM
Method in brief: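 Clusters with intensities outside 100-1000 RFU were excluded. The remaining Cy3-labelled switching-strand clusters on a modified Illumina MiSeq flow-cell had been annealed to 100 nM quencher-labelled ATP aptamer and imaged in selection buffer, then after 15 min with 500 uM ATP at 22 °C, for five cycles separated by NaOH stripping and re-annealing. The fluorescence ratio, averaged per switch-domain sequence, is each cluster's summed target-cycle Cy3 intensity over its summed buffer-cycle Cy3 intensity.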
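Note: ATP exposure 15 min at 22 °C before imaging.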

Sequence | switch fluorescence ratio
TTTCGATTCT | 0.978 ± 0.029
CATGTGAAGG | 0.966 ± 0.037
TTTAAATAAC | 1.02 ± 0.029
CTGGGGGAGT | 1 ± 0.012
TGGCGGGGGC | 1.02 ± 0.011
TAGTAGAGT | 0.9637 ± 0.0076
TGCAGGGACT | 1.005 ± 0.0081
TTAAGTGCTC | 0.983 ± 0.031
CTGCCCTCGC | 1.094 ± 0.0089
CTAACCATCT | 1.028 ± 0.0038
AGCGTACTTT | 1.12 ± 0.018
TTCAGTTTAG | 1 ± 0.031
CATGGAGAGG | 1.02 ± 0.0086
GATGCATGTT | 0.9947 ± 0.0021
GGGAATGTTT | 0.978 ± 0.03
GGGTATTGTG | 0.994 ± 0.033
CGTTGGGAGG | 0.979 ± 0.016
TTGGTGTGTA | 1.002 ± 0.0089
GAGACATCGT | 0.986 ± 0.018
TAAGGTTACT | 0.977 ± 0.035
AAGATGACGC | 1.12 ± 0.13
TTGAATGCCG | 1.04 ± 0.035
GGATTCTAGG | 0.969 ± 0.02

Sequence | switch fluorescence ratio
GGGAATTTTC | 1.004 ± 0.0074
AAGGGGTAAT | 0.967 ± 0.045
TAAGAGATAG | 0.976 ± 0.012
AGAGGAGGTG | 1.02 ± 0.03
ATTGGCTAGG | 0.999 ± 0.037
CTAAACGTCA | 1.1 ± 0.051
AGGGATGGGA | 1.01 ± 0.019
AGAATTACTT | 1.001 ± 0.0092
CCAGAGAGCC | 1.04 ± 0.028
GCGTCGCTTT | 0.952 ± 0.046
GGCATATGTT | 1 ± 0.021
TGATAATGGG | 0.982 ± 0.036
AGTAAATCCT | 1.16 ± 0.0084
TTGAATGTTG | 1.004 ± 0.0037
GCGCCTAGGG | 0.999 ± 0.018
TTATTGGGCC | 1.01 ± 0.026
GTTAGTCTGA | 1.01 ± 0.043
TTAGTGGACT | 1.02 ± 0.016
AAGTTTAATA | 0.943 ± 0.034
ATTACAACGA | 1.015 ± 0.0032
GGTTTACGGT | 1.007 ± 0.0018
TTAGTTTCAG | 1.012 ± 0.0033
AGTATATTTT | 1.006 ± 0.0046

Sequence | switch fluorescence ratio
AGTCAGTCTG | 1.01 ± 0.059
AGGTGGTTTT | 1.014 ± 0.0041
AGGGGGAGGA | 1.01 ± 0.04
TTTAATGAGT | 1.02 ± 0.024
TCATAAGGGC | 1.01 ± 0.12
CAAGTTATAC | 1.38 ± 0.15
GATAGACTTT | 1.02 ± 0.048
TACATGCATG | 1.001 ± 0.0031
GAGGTGTGGG | 0.981 ± 0.016
AAGCTAGTTT | 1 ± 0.013
GCTTCTGGAA | 1.06 ± 0.018
TAGGTAGCTT | 1.02 ± 0.021
CATTGGTGTG | 0.985 ± 0.047
GAAGGAAGAT | 0.9708 ± 0.0069
AAGGGCTGGT | 0.99 ± 0.022
AATATATGGG | 0.973 ± 0.021
CGTAGGGGAA | 0.993 ± 0.02
AAACTTTCTA | 1.05 ± 0.05
TTTAGGGAGT | 0.985 ± 0.015
GGATGTGCTG | 1.04 ± 0.049
GCAGGTAGGG | 0.998 ± 0.039
CCGGGGTGGT | 1.07 ± 0.035
ATTGTAATTT | 1.01 ± 0.026

Sequence | switch fluorescence ratio
CAGAGGGGCG | 1.04 ± 0.043
GGGGAAAAGG | 1 ± 0.017
GGCGAAGGAG | 0.999 ± 0.011
GATGTATTAT | 1.008 ± 0.0043
CGGGGGATAG | 1.06 ± 0.074
CCCGTGTGAG | 0.983 ± 0.045
TCTTGGATGG | 0.986 ± 0.04
ATTGGAGCGT | 0.986 ± 0.0013
ATTTTCGCAT | 1.19 ± 0.051
TAGAGGAGTG | 0.9599 ± 0.0086
GGGCAGTTTT | 0.991 ± 0.023
CGTATGTGGT | 0.97 ± 0.019
TTCAAATGAA | 1 ± 0.016
TCGGGTTGG | 1.03 ± 0.02
AGGTAAGAGG | 0.96 ± 0.026
ACGATTAGAC | 1.12 ± 0.029
TCAATGGTAA | 0.97 ± 0.096
TGAAAAATGG | 1.01 ± 0.031
AGACTCAATG | 0.988 ± 0.07
TTTGTTACTT | 1.01 ± 0.021
TCTTGTCGGT | 1 ± 0.034
CTCTGTGGAC | 2.11 ± 0.27
CATAGTATGT | 0.973 ± 0.067

Sequence | switch fluorescence ratio
CAACGGACTA | 1.246 ± 0.0095
TCTGGCGTTG | 0.983 ± 0.01
TAAAAATACT | 1.07 ± 0.11
AATCGTGGTT | 1 ± 0.034
TAACAGAGGT | 1.01 ± 0.033
ATAGGGATTG | 0.996 ± 0.031
AAGGTTAGTT | 1.003 ± 0.0083
TTACCGGGCA | 1.033 ± 0.0093
GGTGTGTTAA | 0.996 ± 0.042
GAAGTATGGT | 1.01 ± 0.031
GGATGTCCAG | 0.947 ± 0.028
ATTGGTGCT | 1.001 ± 0.007
ATTACGCTGG | 1.01 ± 0.024
GAGTAAAGTT | 0.982 ± 0.02
GTAGTTTATG | 0.996 ± 0.014
AGGTATAGGA | 1.01 ± 0.013
GAGGGTGCGG | 1.01 ± 0.027
GAGGAGGGAC | 0.989 ± 0.05
TTACCCCGTG | 1.13 ± 0.022
TAATAAATCT | 0.9967 ± 0.0051
TAGGATTGGC | 1.04 ± 0.018
AAAAATCTGC | 1.03 ± 0.12
AACATTAGGC | 1.05 ± 0.039

Sequence | switch fluorescence ratio
GGGTTGAGTG | 0.982 ± 0.028
CTGTTAGGCG | 0.9676 ± 0.0092
TTTAGTGACA | 0.9978 ± 0.0036
ATCGGTCGGG | 1.011 ± 0.0088
AGGTGGGCGG | 0.969 ± 0.022
ACGCCTGGTC | 1.01 ± 0.059
GAGGGGTTGT | 1.03 ± 0.013
CGGGGAGTGT | 1 ± 0.043
TCAAATGGCG | 0.923 ± 0.023
TTTTTGGTGT | 1.03 ± 0.036
GGGGGGATCC | 0.996 ± 0.044
AGATGGGGTG | 1.23 ± 0.35
AGAGTCCCTT | 1 ± 0.036
CTTTGGGGGG | 0.982 ± 0.025
CCTTCCTTGT | 2.06 ± 0.031
CAGAAGGATA | 1.03 ± 0.013
GTGTACCGGA | 0.9813 ± 0.0017
CGGGTTTTTG | 0.994 ± 0.03
GCCGTCTGCG | 0.957 ± 0.011
ATAGATCCTT | 0.9996 ± 0.0087
GCGTAATGTT | 0.999 ± 0.022
ATCGAAGGTA | 0.985 ± 0.013
CGATCGGTCA | 1.0097 ± 0.00057

Sequence | switch fluorescence ratio
CCTGTGATAT | 1.3 ± 0.031
CCGGGATTGA | 1.083 ± 0.0038
TGGGTGGTGC | 0.965 ± 0.011
GGGATTTGAT | 0.98 ± 0.028
GCGTAGATGG | 1.006 ± 0.0087
CAGGGATTAA | 0.9842 ± 0.0036
AGGGTGAATG | 1 ± 0.0097
ATGCGTGTTT | 1.003 ± 0.0014
TTTTTTACTG | 0.991 ± 0.026
TGGGGGGAC | 1.01 ± 0.061
CGGGTGAGGG | 1.017 ± 0.0065
TAGTAGACTG | 1.01 ± 0.05
GAATTCAGGT | 0.994 ± 0.011
ATCGGGTATG | 0.9987 ± 0.0082
AAATGCGTTA | 1.01 ± 0.02
TAGTTGAATT | 0.998 ± 0.014
ATTAATGTTG | 1.054 ± 0.0067
AAAGTATTTG | 1.01 ± 0.05
AGGCGGTGTG | 0.973 ± 0.036

Reference: the supplement of paper PMC10126150
